Data taken from the DeepSol protein solubility set.

Assay: soluble on expression in E. coli; label from the status in PepcDB or PDB records

Row | Sequence | soluble on expression in E. coli
1 | MKIARLNLWHVPLTSHTAYYMADGKTCDTVETVVIAVQTDTGITGWGEVCPIPHYLPAYARGVAPALTELAPVILGADPVGVGALMERVDAVLHGHPYAKSALDIALWDITGQVAGLPLHALLGGWRAADMPLYHSITCIAPDDMARIAREAQAQGITQFQVKLGASGDWQTDVERLAKVREAVGPGPLVYGDWNCGATSLEAIRVGRAVAQLDIMLEQPCATLEDCARVQRATGLPMKIDELAHDTASLLTAHRLGIMDAVALKLSKFGGLSTTRRARDLCLHLGARMCIEDTWGSDITTAALLHLGAASEPGRVLNVCDLSGYVAPRLAPDAPVRANGRIAPPEGAGLGITVDRGALGVPDLILD | soluble
2 | MKIGVVGLGLIGASLAGDLRRRGHYLIGVSRQQSTCEKAVERQLVDEAGQDLSLLQTAKIIFLCTPIQLILPTLEKLIPHLSPTAIVTDVASVKTAIAEPASQLWSGFIGGHPMAGTAAQGIDGAEENLFVNAPYVLTPTEYTDPEQLACLRSVLEPLGVKIYLCTPADHDQAVAWISHLPVMVSAALIQACAGEKDGDILKLAQNLASSGFRDTSRVGGGNPELGTMMATYNQRALLKSLQDYRQHLDQLITLISNQQWPELHRLLQQTNGDRDKYVE | soluble
3 | MKIISKEFTVKTRSRFDSIDITEQVSEAIKGINNGIAHVIVKHTTCAIIINEAESGLMKDFLNWAKKLVPPDGEFEHNIIDNNGHAHVISAIIGNSRVVPIIEGKLDLGTWQRIILLEFDGPRTRTVLVKSMGE | soluble
4 | MKIKHLPFDQNRNGWSADLVDKPNYPQQRGKTTADWLVIGAGYAGIAFAQRLAEQRPDKHIILLDAGEIGDNASGRNSGFVIDLPHNIGSSTAELEKAAAYRRLLQSGVAHLKEKVDRHAIACDWSVAGKYHCAVSSTFNGLIDTYVRELNGLGEPYQVVEKDELARRLGTSFYQRAVYTPNCILLNPAALVIGLVASLPKNVTVYAHSPALNIETGSRIRVETPYGEIQADKLMMAINGAARGLPLFNGRVFAVTTFATLTEPLNAEQTARMGDMPDWGLTPVNALASATLRYTRDHRFLIREHVKFAPELVNSAVETGRHARRHAAIFARMFPQLSDVKMAHTWSGLISVTRNGAPIWGQLSDNVFASAGCNGAGLSKQTAAGHILADLALGEDNPLISDMQSLGQANYLPPRPFLDVGVNGYLTSERWKARSERLEHHHHHH | not soluble
5 | MKIKYFFIPLFSSAILFSACSSIQSDLRNLIKETTGKDFDVSKLIKTSEGRKNLINSLKKSYESKPDETASLLLIAWKQSAEMGEIGFDDIKEGGIYTRDNDPFKLEQKVEYFNMEYKILVMF | soluble
6 | MKILFVAAEGAPFSKTGGLGDVIGALPKSLVKAGHEVAVILPYYDMVEAKFGNQIEDVLHFEVSVGWRRQYCGIKKTVLNGVTFYFIDNQYYFFRGHVYGDFDDGERFAFFQLAAIEAMERIDFIPDLLHVHDYHTAMIPFLLKEKYRWIQAYEDIETVLTIHNLEFQGQFSEGMLGDLFGVGFERYADGTLRWNNCLNWMKAGILYANRVSTVSPSYAHEIMTSQFGCNLDQILKMESGKVSGIVNGIDADLYNPQTDALLDYHFNQEDLSGKAKNKAKLQERVGLPVRADVPLVGIVSRLTRQKGFDVVVESLHHILQEDVQIVLLGTGDPAFEGAFSWFAQIYPDKLSTNITFDVKLAQEIYAACDLFLMPSRFEPCGLSQMMAMRYGTLPLVHEVGGLRDTVRAFNPIEGSGTGFSFDNLSPYWLNWTFQTALDLYRNHPDIWRNLQKQAMESDFSWDTACKSYLDLYHSLVN | not soluble
7 | MKIMEINVEHILDCLDQYGKGELTEEQLVKALTYDEKMFLIMHQGLLGENSDSEDDFDVQDWLEEEESFFMVVEVNENLCRQAESVLEEIGVEMPDAIEGFLNQLVEKKQFPVVINS | not soluble
8 | MKINNKLVGERIQNIRLSHGDSMEKFGEKFNTSKGTVNNWEKGRNLPNKENLLKIASIGKMSVEELLYGDYNTYLHLKIMDLAPECIKNYDEYNSLHDDITNKALQIAQNTISKIDYQISDETIKKFIDLAIEQSRDLQGNLLKNNLSNFDYSLFGGTRNREYFYFGYRLTYKEKYLYTALLAILNESTKTIYIDDINTARFFNFFGNDIPNSSLKKIDYIAPSEIVSFSTYVRQRSKVIPKILEHILKSSFLLENIDVSGYTVNILEDQLTKHRTIKISKN | not soluble
9 | MKIRESTGKTSSLREVPGQEPRRVADSSGSSFKRHLKEFDHRNHEERIRALVSQIEEQGRKLSQKIDVAELKVYKRLISDFLDEVLHHSHIFSKDSHLDRRGRYKVYATVKKINEELDELTKEVLNAEKDNIRILQRIEDIRGLVLDLML | soluble
10 | MKISAVVVTFNRKKLLLECLNALRNQTYPLDAIFIIDGPSTDGTPEALLECGYIKELPPKKGNWSWETKNVIYSPINNKPIKVYYVRLYKDVGGSGGFYEGVKRAYEEGYNWIWLMDDDAEPREDALEKLIRYMNLPGVIALAPTVIRPTGEISKPHRGILCFKKIFPMIQIPLDESKYKSNQPVQIDFVSFVGPLIKRDAIKIVGFPKKEFFIHHDDVEYSIRLRTVGKIYLIPDSVIIHKENIKKTSLIKKRFLGKTIYRIPYNKLWKTYYGTRNLTYLGRIYSKSKFKFYFKLLKRWAVSVGAIILFDDHKIKRIQFITSAYLDGLRGKFDNEKPKRILYGGKKELEHHHHHH | soluble
11 | MKITFLGAAKTVTGSCFFVETASTKFLVDCGMFQGYSKNNALNEEEFPFNVEELDYIFLTHAHIDHSGRIPRIYIKGFRGQIIATKATVELCAIMLPDSGHIQEYENEWTNRKRLRAGKPPVEPLYTYQDAVNCLELFRKVSYDEVIKINDEIRVRFRDAGHILGSAIIEMWINERGEEIKIVFSGDLGNKDIPILRDPSIIESADYLVIESTYGNRLHNERVDKAEYFLNLINSTIEKGGNVIIPSFAAGRTQELIYELNKKKEVYDEKLKMLFATPVYIDSPMAISATEVFRNNLDCYDEEAREYIENGDNPLDFPGLQFTRTAEESKALNERKESSIIIAASGMCEAGRIRHHLKHNLWRKDSTIIFVGYQAEGTLGRRLLDGAKKVRLFGEEISVEARIEMIEGFSGHADKEGLLKWIERFNRKPKKIFIVHGEEDAMIEFSEEINRRFNIETVIPSRGESFILNAHNVIAIDEKVRPDNSFRILQVVEKLENIKEEVEELSYILKSDLKQDKTDLELDELMAKLKNIEKSILEALK | not soluble
12 | MKIVAVTACPTGIAHTYMAADALTKAAPKYNVQIKVETQGAMGIENPLTPYDLSHADKVLIVSDIDIEQPARFEGMKVVKLSIEEVLLNVDKVFLVHCR | not soluble
13 | MKIVWYGHACFLVKTKGVSILIDPYPDVDEDRMEKVDYILITHEHMDHYGKTPLIAKLNDAEVIGPKTVYLMAISDGLTKVREVEADQEFQLGDVTVKTFYTEHPTSQYPLGYLILGEKRVAHLGDTYYSPGFRELRGQVDILLVPIGGRSTASEREAVDIIDIIRPRIVVPMHYGTYGSTGNVESFKRELQRRRVWVLVKDLKPYEGFEV | soluble
14 | MKIWSSEHVFGHPWDTVIKAAMRKYPNPMNPCVVGVDVLERSVDGCGRLHSLRLLSTEWGLPGLVRAILGANRTLTYIKERSVVDPAARKMELCSTNITLTNLVSVNERLVYTPHPENPEKTVLTQEAIITVKGISLGSYLESLMATTISSNAKKGWAAIEWIIEHSESAIS | not soluble
15 | MKKDILEKGAILQRDRETYAIAPHIPGGITDTATLRKLCDVADKYGVKELKLTSAQRIALFGVKEEDLDAIWSDLDQQPGAAIGLCVRSVKICPGTTWCKRGVQDSVSLGLKIDAIYHAMELPNKMKMGISGCMLNCAETMLKDVGVVGTPKGWRIYVGGNAGARPRIGDLLVELGPDEDKVLAVIADLVEWYRSSGSEQRLGRVVEQMGFDAFKTAVLGAKATP | not soluble
16 | MKKEEAKDIPIGGEIAVRQTGVPYGWLYRRTEPGYLLANGIALLECERDSAGRYKGGAGLDGMYLQTGRLYVPVLAGDGNVRAFQEVIPENYLAAAEMSVEGNYNQIDGIINNEPPKPSVLDALNQCREDAAKGRDAPENPPRGQEVER | not soluble
17 | MKKEHQKTLTFEIITPVVMAGTYKDEPELRIPSIKGMLRWWFRFFYASHNQSIDKLREHENEIFGSTEKACQFYMHLKYSQKLTDAYLAMNKRYGRYNNIKRKALEKNDTFRIDFIYSPFFTYKKELNTTLQLLSFLGGIGARWRRGFGSIQLKNGEDYKSFDKLKEKIEKVLKGKGEYHHDGFININNVDIYLVKPKRDNFWIDSLGAMNNLRKKVYKEFKSETNIKAIACKPKGGSRAVSPLIIQIKKFSEGKFYGILIVYNEWDKYEEFKNFINNNSELSFEQLLKSKPRKI | soluble
